From PMC10400651, “Gain-of-function mutant p53 together with ERG proto-oncogene drive prostate cancer by beta-catenin activation and pyrimidine synthesis”

Biological target: p53 WT (UniProt P04637 1-393)
Experiment: EMSA; Thermo EMSA kit (20148) protocol; 6% native PAGE; supershift with 1 ug anti-p53 for 1 h at room temperature; recombinant p53 eluted in PBS; buffer, salt and pH
Conditions: protein: recombinant; tags: untagged after thrombin cleavage of GST; chain copies: 4; label: biotin; blunt

p53 WT, sequence (P04637 whole entry): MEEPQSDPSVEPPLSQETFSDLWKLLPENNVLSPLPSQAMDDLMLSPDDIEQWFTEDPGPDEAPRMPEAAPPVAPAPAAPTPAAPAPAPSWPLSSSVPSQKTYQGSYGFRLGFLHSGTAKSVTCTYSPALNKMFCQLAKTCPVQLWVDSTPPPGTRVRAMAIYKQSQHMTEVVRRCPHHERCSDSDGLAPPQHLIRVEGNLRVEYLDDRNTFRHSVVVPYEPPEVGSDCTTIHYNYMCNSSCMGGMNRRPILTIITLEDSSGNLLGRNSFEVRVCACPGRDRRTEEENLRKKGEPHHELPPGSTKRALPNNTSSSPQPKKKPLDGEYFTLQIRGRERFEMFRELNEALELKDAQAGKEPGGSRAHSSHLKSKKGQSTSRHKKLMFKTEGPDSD

B1: CTNNB1-probe1 (MP53BS) (dsDNA)
DNA 1: GCCCCCTCGCGCCCCGCCCCTTGTC
DNA 2: GACAAGGGGCGGGGCGCGAGGGGGC
  binding result: no binding
